Test results reported in US5977442A, “Salicylic acid induced map kinase and its use for enhanced disease resistance in plants” (priority 1997, dated 1999).

Tests used:
[1] = molecular target: T1, p48 SIP kinase (Nicotiana tabacum, UniProt A0A1S3Z5Y0); test: Kinetic properties, substrates, cofactors and pH dependence of p48 SIP kinase (in-solution kinase assay); assay type: biochemical, tobacco; details: pH of 5.5 or 10
T1 construct: endogenous in cells; host or cells: SA-treated tobacco suspension culture cells (purified through the poly-L-lysine agarose step)
Method: FIGS. 10A and 10B show a pair of graphs illustrating the effect of pH (FIG. 10A), Mg^2+ and Mn^2+ (FIG. 10B) on p48 SIP kinase activity. Approximately 0.5 unit of partially purified enzyme was used in each test. Buffers used for measuring the effect of pH were 50 mM 2-[N-morpholino]ethanesulfonic acid (Mes, pH 5.0-8.0, .circle-solid.), 50 mM Tris (pH 6.0-9.5, .tangle-solidup.), and 50 mM 3-[cyclohexylamino]-1-propanesulfonic acid (Caps, pH 9.0-12.0, .box-solid.). For testing the effects of Mg^2+ (.circle-solid.), and Mn^2+ (.tangle-solidup.), buffer B from the last purification step was first exchanged to Mg^2+ -free buffer using a desalting column. Mg^2+ was not added in reactions for testing the effect of Mn^2+.
FIG. 11 is a graph depicting the protein substrate preference of the p48 SIP kinase. About 0.5 unit of partially purified enzyme was used in each reaction. The assay conditions were as described below in Example 1, except various concentrations of MBP (.circle-solid.), histone (.tangle-solidup.), and casein (.box-solid.) were used.
Unless specifically indicated, assays were performed at room temperature for 20 minutes in a final volume of 15 μl containing 0.5 mg/mL of MBP, 50 μM of γ-^32 P-ATP (about 3000-6000 cpm/pmole), 25 mM Tris pH 7.5, 5 mM MgCl2, 1 mM EGTA, 1 mM DTT, and enzyme. The reaction was terminated by the addition of equal volume of 150 mM H3 PO4. Twenty μL of the mixture was spotted onto an 8-well phosphocellulose filter strip (Pierce, Ill.). After washing with 150 mM H3 PO4 extensively, the phospho-protein was eluted with 0.4 mL of 1 N NaOH, and the radioactivity was determined by liquid scintillation counting. Total cpm in the reaction mixture was also determined in order to calculate the specific activity of the enzyme preparation. One unit of p48 SIP kinase was defined as the amount of enzyme that will catalyze the transfer of 1 pmole of phosphate from ATP to MBP in 1 minute.

[2] = system: MBP; test: Basal phosphorylation activity of recombinant SIP kinase produced in E. coli; assay type: biochemical; details: recombinant protein from E. coli
Source text: A tobacco clone that encodes an exemplary SIP kinase of the invention is described in detail herein. The nucleotide sequence of a cDNA encoding tobacco SIP kinase is set forth below as Sequence I.D. No. 1. It is believed that Sequence I.D. No. 1 constitutes a full-length SIP kinase-encoding clone as it contains a suitable methionine for initiation of translation.
Optionally, transgenic plants would be created containing mutations in the region encoding the active site of SIP kinase. This embodiment is preferred over the use of anti-sense constructs due to the very high homology between MAP kinases. For example, a mutated p48 SIP kinase with a Lys to Arg change in the kinase subdomain II has been made, and could be introduced into wild tobacco plants. […] Since the mutant p48 kinase would still serve as the substrate for upstream MAP kinase kinase and physically compete with the wild-type p48 SIP kinase, but would not transduce signal to downstream components, it may be possible to specifically block the pathway without affecting other MAP kinase cascades.

[3] = system: MBP; test: Kinase activity assay during purification of p48 SIP kinase (MBP substrate); assay type: biochemical
Method: All purification procedures were carried out in a cold room or in a 4° C. chamber. Protein extract from about 200 grams of SA-treated cells was first fractionated by (NH4)2 SO4 precipitation. Saturated ammonium sulfate solution was slowly added to total protein extract to 30% of final concentration. After slowly stirring for 30 minutes, the precipitate was collected by centrifugation at 23,000×gfor 10 minutes. The pellets were then dissolved in a total of 30 mL of buffer A (25 mM Tris, pH 7.5, 1 mM EGTA, 10 mM β-glycerolphosphate, 0.1 mM Na3 VO4, 1 mM DTT, 5% glycerol) plus 1 mM phenylmethylsulfonyl fluoride, 5 μg/mL each of antipain, aprotinin, and leupeptin. […]
Unless specifically indicated, assays were performed at room temperature for 20 minutes in a final volume of 15 μl containing 0.5 mg/mL of MBP, 50 μM of γ-^32 P-ATP (about 3000-6000 cpm/pmole), 25 mM Tris pH 7.5, 5 mM MgCl2, 1 mM EGTA, 1 mM DTT, and enzyme. […] After washing with 150 mM H3 PO4 extensively, the phospho-protein was eluted with 0.4 mL of 1 N NaOH, and the radioactivity was determined by liquid scintillation counting. Total cpm in the reaction mixture was also determined in order to calculate the specific activity of the enzyme preparation. […]

T1 sequence (A0A1S3Z5Y0 whole entry): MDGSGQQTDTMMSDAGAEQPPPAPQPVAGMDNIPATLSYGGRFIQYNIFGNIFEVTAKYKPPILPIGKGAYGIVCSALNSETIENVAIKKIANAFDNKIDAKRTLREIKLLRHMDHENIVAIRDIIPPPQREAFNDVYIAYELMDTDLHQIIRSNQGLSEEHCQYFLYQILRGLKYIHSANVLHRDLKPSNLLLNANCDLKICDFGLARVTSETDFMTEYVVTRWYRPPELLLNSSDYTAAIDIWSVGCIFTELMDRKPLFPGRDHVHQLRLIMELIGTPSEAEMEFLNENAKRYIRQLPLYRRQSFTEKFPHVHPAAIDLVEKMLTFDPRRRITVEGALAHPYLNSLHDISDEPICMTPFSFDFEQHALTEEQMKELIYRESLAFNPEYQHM

B1: p48 SIP kinase: novel protein kinase isolated from tobacco, activated by salicylic acid; Sequence I.D. No. 2 (protein)
chain: MDGSGQQTDTMMSDAGAEQPPTAPQPVAGMDNIPATLSHGGRFIQYNIFGNIFEVTAKYKPPILPIGKGAYGIVCSALNSETIENVAIKKIANAFDNKIDAKRTLREIKLLRHMDHENIVAIRDIIPPPQREAFNDVYIAYELMDTDLHQIIRSNQGLSEEHCQYFLYQILRGLKYIHSANVLHRDLKPSNLLLNANCDLKICDFGLARVTSETDFMTEYVVTRWYRPPELLLNSSDYTAAIDVWSVGCIFMELMDRKPLFPGRDHVHQLRLIMELIGTPSEAEMEFLNENAKRYIRQLPLYRRQSFTEKFPHVHPTAIDLVEKMLTFDPRRRITVEGALAHPYLNSLHDISDEPICMTPFSFDFEQHALTEEQMKELIYRESLAFNPEYQHM
modifications: phosphorylated on tyrosine residue(s); serine/threonine phosphorylation also required for activity; positions not given
**Q.** How did the retained kinase activity [1] turn out when B1 was run?
**A.** more than 50%

**Q.** What about the “phosphorylation of MBP / basal phosphorylation activity” value [2] of the same molecule?
**A.** phosphorylates MBP

**Q.** What about the “specific activity” value ([3]; Superdex 200 HR 10/30 fraction) of the same molecule?
**A.** 339600.0 pmol/min/mg

**Q.** And the specific activity ([3]; final purified enzyme)?
**A.** 340000 pmol/min/mg
